# Test results published in patent US20210102195A1 (TWIST BIOSCIENCE, published 2021).
# Like-named read-outs stand apart in the source and are kept apart here.
# T1: human TIGIT (human, UniProt Q495A1 22-141, limits assumed)
# T1 construct: also called hTIGIT
# T1 sequence (looked up): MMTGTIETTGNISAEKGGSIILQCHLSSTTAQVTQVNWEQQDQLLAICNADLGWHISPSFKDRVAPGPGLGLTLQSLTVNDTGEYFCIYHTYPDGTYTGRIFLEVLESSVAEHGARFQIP
# T2: CRTH2R (UniProt Q9Y5Y4 1-395, limits assumed)
# T2 construct: whole, on cells; also called Prostaglandin D2 receptor 2 (DP2 or CRTH2) receptor
# T2 sequence (looked up): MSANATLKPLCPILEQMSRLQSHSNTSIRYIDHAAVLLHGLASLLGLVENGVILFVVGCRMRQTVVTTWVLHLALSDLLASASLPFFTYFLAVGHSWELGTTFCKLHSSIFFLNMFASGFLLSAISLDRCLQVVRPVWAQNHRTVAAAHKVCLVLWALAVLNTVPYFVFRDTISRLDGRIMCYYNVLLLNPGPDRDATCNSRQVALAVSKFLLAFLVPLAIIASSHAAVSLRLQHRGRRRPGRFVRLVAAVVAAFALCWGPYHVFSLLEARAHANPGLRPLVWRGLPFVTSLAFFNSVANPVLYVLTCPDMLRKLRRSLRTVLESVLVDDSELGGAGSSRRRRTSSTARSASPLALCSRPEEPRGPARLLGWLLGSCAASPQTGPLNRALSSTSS
# T3: hCRTH2R (human, UniProt Q9Y5Y4 1-395)
# T3 sequence (looked up): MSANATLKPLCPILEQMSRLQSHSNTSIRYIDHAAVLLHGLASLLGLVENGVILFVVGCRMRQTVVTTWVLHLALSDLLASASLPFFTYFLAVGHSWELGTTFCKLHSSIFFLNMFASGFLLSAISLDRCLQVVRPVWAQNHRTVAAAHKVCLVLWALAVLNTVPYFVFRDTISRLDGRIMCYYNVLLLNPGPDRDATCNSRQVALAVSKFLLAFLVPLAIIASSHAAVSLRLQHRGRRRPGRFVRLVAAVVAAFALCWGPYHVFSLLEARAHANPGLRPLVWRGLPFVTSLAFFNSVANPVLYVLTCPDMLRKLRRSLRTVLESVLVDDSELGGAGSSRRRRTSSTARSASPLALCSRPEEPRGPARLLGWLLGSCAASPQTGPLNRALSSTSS
# Key:
# human TIGIT = target: T1, human TIGIT; test: monovalent affinity of the hTIGIT IgGs; method not named in Example 14
# CRTH2R [1] = target: T2, CRTH2R; test: flow cytometry (MFI), CHO CRTH2R-positive cells against parental CHO cells; same panel as in FIG. 15B; grey = CRTH2R cells, black = parental cells (no legend on the panel)
# Experimental: (§1) Cell binding of anti-CRTH2R antibodies was determined by testing on CHO CRTH2R-positive cells (GFP+) and parental CHO cells (GFP−), comparing parental negative and target positive cells to rule out false-positives. Antibodies as listed in Table 14A were titrated starting at 100 nM (15 ug/mL) with 3-fold titrations, for a total of 8 points. Two antibodies (gPCR-51 and gPCR-52) were used as a positive control.
# CRTH2R [2] = target: T2, CRTH2R; test: flow cytometry (MFI), CHO CRTH2R-positive cells against parental CHO cells, 3-fold titration from 100 nM; grey = CRTH2R cells, black = parental cells (no legend on the panel)
# Experimental: as §1
# CRTH2R [3] = target: T2, CRTH2R; test: cell-based or functional assay
# CRTH2R [4] = target: T2, CRTH2R; test: flow cytometry (MFI), titration 0.05-100 nM on CRTH2R cells against parent cells; no legend on the panel: grey curve and grey EC50 taken as the CRTH2R cells, black (ND) as the parent cells
# CRTH2R [5] = target: T2, CRTH2R; test: cell-based or functional assay; remark: listed apart in the source
# hCRTH2R [6] = target: T3, hCRTH2R; test: cell-based or functional assay
# hCRTH2R [7] = target: T3, hCRTH2R; test: flow cytometry (MFI) cell binding titration, upper grey curve; cell lines not labelled on the sheet
# hCRTH2R [8] = target: T3, hCRTH2R; test: flow cytometry (MFI) cell binding titration; number in grey print, taken with the upper grey curve; the sheet does not label the cell lines of the two curves
# hCRTH2R [9] = target: T3, hCRTH2R; test: cell-based or functional assay; remark: listed apart in the source
# hCRTH2R [10] = target: T3, hCRTH2R; test: flow cytometry (MFI) cell binding titration; number in grey print, taken with the upper grey curve; the sheet does not label the cell lines of the two curves; remark: listed apart in the source
# hCRTH2R [11] = target: T3, hCRTH2R; test: cell-based or functional assay; remark: listed apart in the source
# hCRTH2R [12] = target: T3, hCRTH2R; test: flow cytometry (MFI) cell binding titration; number in grey print, taken with the upper grey curve; the sheet does not label the cell lines of the two curves; remark: listed apart in the source
# CRTH2R [13] = target: T2, CRTH2R; test: flow cytometry (MFI), CHO CRTH2R-positive cells against parental CHO cells; same panel as in FIG. 15E; grey = CRTH2R cells, black = parental cells (no legend on the panel)
# Experimental: as §1
binder,measurement,setting,value
"TIGIT-55-12 (antibody, V domains shown, hTIGIT IgG) VH: EVQLLESGGGLVQPGGSLRLSCAASGFTLSSYAMAWVRQAPGKGLEWVSTLSGSGGSTYYADSVKGRFTISRDNSKNTLYLQMNSLRAEDTAVYYCARVRVGAYDAFDIWGQGTLVTVSS VL: DIQMTQSPYSLSASVGDRVTITCRASQSIRRYLNWYQQKPGKAPKLLIYRASTLQTGVPSRFSGSGSGTDFTLTISSLQPEDFATYYCQQTYSSPFTFGGGTKVEIK",Kd,human TIGIT,148 nM
"TIGIT-55-11 (antibody, V domains shown, hTIGIT IgG) VH: EVQLLESGGGLVQPGGSLRLSCAASGFTFTNYGMSWVRQAPGKGLEWVSSISGSGSTTYYADSVKGRFTISRDNSKNTLYLQMNSLRAEDTAVYYCASVKRWGYYFNWWGQGTLVTVSS VL: DIQMTQSPSSLSASVGDRVTITCRASQNINYYLNWYQQKPGKAPKLLIYGASSLQNGVPSRFSGSGSGTDFTLTISSLQPEDFATYYCQQSYITPYTGGGTKVEIK",Kd,human TIGIT,327 nM
"CRTH2-27 (antibody, V domains shown, CRTH2R IgG) VH: QVQLVESGGGVVQPGRSLRLSCAASGFTFDNYGMHWVRQAPGKGLEWVAVISYEGSNKKYADSVKGRFTISRDNSKNTLYLQMNSLRAEDTAVYYCARDMYYDFGSIYGEDVVGELPEVVPADDAFDIWGQGTLVTVSS VL: QSALTQPASVSGSPGQSITISCTGTSNDVGAYNFVSWYQQHPGKAPKLMIYDISNRPSGVSNRFSGSKSGNTASLTISGLQAEDEADYYCSSYTRSNTRVFGGGTKLTVL",EC50,CRTH2R [1],42 nM
same,EC50,CRTH2R [2],42 nM
same,IC50 fold difference of the PGD2 dose response (cAMP) with 100 nM IgG,CRTH2R [3],> 2 fold
"TIGIT-55-08 (antibody, V domains shown, hTIGIT IgG) VH: EVQLLESGGGLVQPGGSLRLSCAASGFMFSDYAMSWVRQAPGKGLEWVSGISGSGGYTYYADSVKGRFTISRDNSKNTLYLQMNSLRAEDTAVYYCTRSWYYYYGMDVWGQGTLVTVSS VL: DIQMTQSPSSLSASVGDRVTITCRAGQSIRSYLNWYQQKPGKAPKLLIYASSNLQSGVPSRFSGSGSGTDFTLTISSLQPEDFATYYCQQSYSTPLLTFGGGTKVEIK",Kd,human TIGIT,113 nM
"TIGIT-55-06 (antibody, V domains shown, hTIGIT IgG) VH: EVQLLESGGGLVQPGGSLRLSCAASGFTFSRYTMNWVRQAPGKGLEWVSGISGSGGGAYYADSVKGRFTISRDNSKNTLYLQMNSLRAEDTAVYYCARNSYGPPRSFGMDVWGQGTLVTVSS VL: DIQMTQSPSSLSASVGDRVTITCRASQSISKYLNWYQQKPGKAPKLLIYGASSLRGGVPSRFSGSGSGTDFTLTISSLQPEDFATYYCQQSYRPPLTFGGGTKVEIK",Kd,human TIGIT,153 nM
"TIGIT-55-07 (antibody, V domains shown, hTIGIT IgG) VH: EVQLLESGGGLVQPGGSLRLSCAASGFTFSSYGMTWVRQAPGKGLEWVSAISGRGSSTYYADSVKGRFTISRDNSKNTLYLQMNSLRAEDTAVYYCARTPYRSGWADYWGQGTLVTVSS VL: DIQMTQSPSSLSASVGDRVTITCRASQNIKTYLNWYQQKPGKAPKLLIYAASSLHTGVPSRFSGSGSGTDFTLTISSLQPEDFATYYCQQTYSIPQTFGGGTKVEIK",Kd,human TIGIT,231 nM
"TIGIT-55-14 (antibody, V domains shown, hTIGIT IgG) VH: EVQLLESGGGLVQPGGSLRLSCAASGFMFSRYAMSWVRQAPGKGLEWVSSISGSGGTTYYADSVKGRFTISRDNSKNTLYLQMNSLRAEDTAVYYCARRGSGWYIDSWGQGTLVTVSS VL: DIQMTQSPSSLSASVGDRVTITCRASQSVSRYLNWYQQKPGKAPKLLIYGSSNLQSGVPSRFSGSGSGTDFTLTISSLQPEDFATYYCQESYSTPFTFGGGTKVEIK",Kd,human TIGIT,139 nM
"TIGIT-55-13 (antibody, V domains shown, hTIGIT IgG) VH: EVQLLESGGGLVQPGGSLRLSCAASGFTFSTYGMNWVRQAPGKGLEWVSTISGSGGSTYFADSVKGRFTISRDNSKNTLYLQMNSLRAEDTAVYYCARNSGWFMPFDYWGQGTLVTVSS VL: DIQMTQSPSSLSASVGDRVTITCRTSQSISTYLNWYQQKPGKAPKLLIYATSRLQSGVPSRFSGSGSGTDFTLTISSLQPEDFATYYCQQSYTTPLTFGGGTKVEIK",Kd,human TIGIT,112 nM
"CRTH2-9 (antibody, V domains shown, CRTH2R IgG) VH: QVQLVQSGAEVKKPGSSVKVSCKASGGTFSSYAISWVRQAPGQGLEWMGGIIPIFGTANYAQKFQGRVTITADESTSTAYMELSSLRSEDTAVYYCARDMYYDFWLGDQSTGSLIGAEVVPADDAFDIWGQGTLVTVSS VL: QSVLTQPPSVSAAPGQKVTISCSGSTSNIGNNYVSWYQQLPGTAPKLLIYENDERPSGIPDRFSGSKSGTSATLGITGLQTGDEADYYCATWDTRLSAVVFGGGTKLTVL",EC50,CRTH2R [1],14.9 nM
same,EC50,CRTH2R [2],14.9 nM
same,IC50 fold difference of the PGD2 dose response (cAMP) with 100 nM IgG,CRTH2R [3],> 2 fold
same,antagonist activity in PGD2-induced cAMP assay at 33 nM IgG,CRTH2R [3],> 20%
"CRTH2-41-51 (Fc fusion, not shown: a dimerising Fc or GST) EVQLVESGGGLVQPGGSLRLSCAASGGIFRFNAMGWFRQAPGKERELVAGISGSGGDTYYADSVKGRFTISADNSKNTAYLQMNSLKPEDTAVYYCAAFRGIMRPDWGQGTLVTVSS",EC50,CRTH2R [4],0.181 nM
same,IC50 fold diff. of the PGD2 dose response in the CRTH2 DiscoverX allosteric cAMP assay (+ CRTH2-41-51-VHH against + no Ab),CRTH2R [5],2.18 fold
"CRTH2-48-3 (antibody, V domains shown, CRTH2R immunoglobulin (IgG); also called CRTH2-48-03) VH: EVQLVESGGGLVQAGGSLRLSCAASGSIFRINAMGWFRQAPGKEREGVAAINNFGTTKYADSVKGRFTISADNAKNTVYLQMNSLKPEDTAVYYCAAVRWGPRNDDRYDWGQGTQVTVSS VL: DIQMTQSPSSLSASVGDRVTITCRASQSISSDLNWYQQKPGKAPKLLIYFASGLQSGVPSRFSGSGSGTDFTLTISSLQPEDFATYYCQQSYSSPLTFGGGTKVEIKR","IC50 of PGD2 in the CRTH2 DiscoverX cAMP assay after 200nM IgG pre-incubation (+ no Ab: 0.2487), the axis reads PGD2",hCRTH2R [6],0.356 nM
same,EC50 (read off the curve),hCRTH2R [7],~2 nM
same,EC50,hCRTH2R [8],0.579 nM
"CRTH2-48-21 (antibody, V domains shown, CRTH2R immunoglobulin (IgG)) VH: EVQLVESGGGLVQAGGSLRLSCAASGSFFSINAMGWFRQAPGKEREFVAGITRSGVSTSYADSVKGRFTISADNAKNTVYLQMNSLKPEDTAVYYCAAHRIVVGGTSVGDWRWGQGTQVTVSS VL: DIQMTQSPSSLSASVGDRVTITCRTSQSISNYLNWYQQKPGKAPKLLIYATSSLESGVPSRFSGSGSGTDFTLTISSLQPEDFATYYCQQSYSTLLTFGGGTKVEIKR","IC50 of PGD2 in the CRTH2 DiscoverX cAMP assay after 200nM IgG pre-incubation (+ no Ab: 0.4559), the axis reads PGD2",hCRTH2R [9],0.567 nM
same,EC50,hCRTH2R [10],1.32 nM
"CRTH2-48-27 (antibody, V domains shown, CRTH2R immunoglobulin (IgG)) VH: EVQLVESGGGLVQAGGSLRLSCAASGSIFHINAMGWFRQAPGKEREGVAAINNFGTTKYADSVKGRFTISANNAKNTVYLQMNSLKPEDTAVYYCAAVRWGPRNDDRYDWGQGTLVTVSS VL: DIQMTQSPSSLSASVGDRVTITCRASQSISRYLHWYQQKPGKAPKLLIYGASRLESGVPSRFSGSGSGTDFTLTISSLQPEDFATYYCRQSYSTPWTFGGGTKVEIKR","IC50 of PGD2 in the CRTH2 DiscoverX cAMP assay after 200nM IgG pre-incubation (+ no Ab: 0.4559), the axis reads PGD2",hCRTH2R [11],0.407 nM
same,EC50,hCRTH2R [12],0.859 nM
"CRTH2-50 (antibody, V domains shown, CRTH2R IgG) VH: QVQLVQSGAEVKKPGSSVKVSCKASGGTFSSYALSWVRKAPGQGLEWMGGTIPIFGTVNYAQKFQGRVTITADESTSTAYMELSSLRSEDTAVYYCARANQHFTRVIGQPSPAVPSRGYIYHGYHYYGMDVWGQGTLVTVSS VL: QSALTQPASVSGSPGQSITISCTGTSSDIGGYNFVSWYQQHPGKAPKLMIYDVSNRPQGVSNRFSGSKSGNTASLTISGLQAEDEADYYCSSYTSSNTYVVFGGGTKLTVL",EC50,CRTH2R [13],19.6 nM
same,EC50,CRTH2R [2],19.6 nM
same,IC50 fold difference of the PGD2 dose response (cAMP) with 100 nM IgG,CRTH2R [3],> 2 fold
